Read-outs that look alike come from different tables or passages of the source.
Legend:
AR42J tumor-bearing mice = details: male, athymic nu/nu, mouse, in vivo, iv, 0.3 nmol
in vivo = details: male, athymic nu/nu, mouse, iv, total radioactivity
[1] = 0.03 nmol, uptake in Red blood cell
[2] = 0.1 nmol, uptake in Red blood cell

SMILES: C[C@@H](O)[C@H](NC(=O)[C@@H]1CSSC[C@H](NC(=O)[C@@H](Cc2ccccc2)NC(=O)CN2CCN(CC(=O)O)CCN(CC(=O)O)CCN(CC(=O)O)CC2)C(=O)N[C@@H](Cc2ccc(O)cc2)C(=O)N[C@H](Cc2c[nH]c3ccccc23)C(=O)N[C@@H](CCCCN)C(=O)N[C@@H]([C@@H](C)O)C(=O)N1)C(=O)O [^111In-DOTATATE, metal not drawn]
- Tumor uptake (AR42J tumor-bearing mice; 10 min): 6.3 ± 1.3 %IA/g
- Renal activity (AR42J tumor-bearing mice; 1 h): 10.9 ± 0.6 %IA/g
- Tumor uptake (AR42J tumor-bearing mice; 1 h): 6.0 ± 1.2 %IA/g
- tissue uptake at 10 min (in vivo; 0.03 nmol, uptake in Adrenals): 3.4 ± 2.3 %ID/g
- tissue uptake at 0.5 h (in vivo; 0.03 nmol, uptake in Adrenals): 4.7 ± 4.4 %ID/g
- tissue uptake at 1 h (in vivo; 0.03 nmol, uptake in Adrenals): 4.6 ± 5.6 %ID/g
- tissue uptake at 0.05 h (in vivo; 0.03 nmol, uptake in Kidney): 19.2 ± 8.4 %ID/g
- tissue uptake at 10 min (in vivo; 0.03 nmol, uptake in Kidney): 16 ± 4.1 %ID/g
- tissue uptake at 0.5 h (in vivo; 0.03 nmol, uptake in Kidney): 14 ± 4.1 %ID/g
- tissue uptake at 1 h (in vivo; 0.03 nmol, uptake in Kidney): 12.3 ± 3.7 %ID/g
- tissue uptake at 0.05 h (in vivo; 0.03 nmol, uptake in Muscles): 1.2 ± 0.7 %ID/g
- tissue uptake at 10 min (in vivo; 0.03 nmol, uptake in Muscles): 0.9 ± 0.3 %ID/g
- tissue uptake at 0.5 h (in vivo; 0.03 nmol, uptake in Muscles): 0.3 ± 0.1 %ID/g
- tissue uptake at 1 h (in vivo; 0.03 nmol, uptake in Muscles): 0.07 %ID/g
- tissue uptake at 0.05 h (in vivo; 0.03 nmol, uptake in Pancreas): 6 ± 1.5 %ID/g
- tissue uptake at 10 min (in vivo; 0.03 nmol, uptake in Pancreas): 1.6 ± 1.4 %ID/g
- tissue uptake at 0.5 h (in vivo; 0.03 nmol, uptake in Pancreas): 4.7 ± 2.7 %ID/g
- tissue uptake at 1 h (in vivo; 0.03 nmol, uptake in Pancreas): 9.2 ± 1.9 %ID/g
- tissue uptake at 0.05 h (in vivo; 0.03 nmol, uptake in Pituitary): 1 ± 1.7 %ID/g
- tissue uptake at 10 min (in vivo; 0.03 nmol, uptake in Pituitary): 0.2 ± 0.2 %ID/g
- tissue uptake at 0.5 h (in vivo; 0.03 nmol, uptake in Pituitary): 0.5 ± 0.8 %ID/g
- tissue uptake at 1 h (in vivo; 0.03 nmol, uptake in Pituitary): < 0.05 %ID/g
- tissue uptake at 0.05 h (in vivo; 0.03 nmol, uptake in Plasma): 13.3 ± 1.6 %ID/g
- tissue uptake at 0.5 h (in vivo; 0.03 nmol, uptake in Plasma): 3.2 ± 1 %ID/g
- tissue uptake at 1 h (in vivo; 0.03 nmol, uptake in Plasma): 0.8 ± 0.1 %ID/g
- tissue uptake at 0.05 h (in vivo; [1]): 3.5 ± 2.5 %ID/g
- tissue uptake at 0.5 h (in vivo; [1]): 0.6 ± 0.2 %ID/g
- tissue uptake at 1 h (in vivo; [1]): 0.3 ± 0.08 %ID/g
- tissue uptake at 0.05 h (in vivo; 0.03 nmol, uptake in Stomach): 5.6 ± 0.7 %ID/g
- tissue uptake at 10 min (in vivo; 0.03 nmol, uptake in Stomach): 7.9 ± 2.2 %ID/g
- tissue uptake at 0.5 h (in vivo; 0.03 nmol, uptake in Stomach): 8.1 ± 1.3 %ID/g
- tissue uptake at 1 h (in vivo; 0.03 nmol, uptake in Stomach): 7.6 ± 1.1 %ID/g
- tissue uptake at 0.05 h (in vivo; 0.03 nmol, uptake in Tumor): 6.9 ± 3.6 %ID/g
- tissue uptake at 10 min (in vivo; 0.03 nmol, uptake in Tumor): 10.7 ± 2.5 %ID/g
- tissue uptake at 0.5 h (in vivo; 0.03 nmol, uptake in Tumor): 15.1 ± 7.5 %ID/g
- tissue uptake at 1 h (in vivo; 0.03 nmol, uptake in Tumor): 12.8 ± 6.7 %ID/g
- tissue uptake at 1 h (in vivo; 0.1 nmol, uptake in Adrenals): 1.3 ± 0.2 %ID/g
- tissue uptake at 0.05 h (in vivo; 0.1 nmol, uptake in Kidney): 21.6 ± 3.9 %ID/g
- tissue uptake at 10 min (in vivo; 0.1 nmol, uptake in Kidney): 15.6 ± 3.1 %ID/g
- tissue uptake at 0.5 h (in vivo; 0.1 nmol, uptake in Kidney): 16.1 ± 5.5 %ID/g
- tissue uptake at 1 h (in vivo; 0.1 nmol, uptake in Kidney): 16.7 ± 8.6 %ID/g
- tissue uptake at 0.05 h (in vivo; 0.1 nmol, uptake in Muscles): 1.5 ± 0.6 %ID/g
- tissue uptake at 10 min (in vivo; 0.1 nmol, uptake in Muscles): 0.7 ± 0.2 %ID/g
- tissue uptake at 0.5 h (in vivo; 0.1 nmol, uptake in Muscles): 0.4 ± 0.4 %ID/g
- tissue uptake at 1 h (in vivo; 0.1 nmol, uptake in Muscles): 0.3 ± 0.4 %ID/g
- tissue uptake at 0.05 h (in vivo; 0.1 nmol, uptake in Pancreas): 11.9 ± 4 %ID/g
- tissue uptake at 10 min (in vivo; 0.1 nmol, uptake in Pancreas): 9.9 ± 4.2 %ID/g
- tissue uptake at 0.5 h (in vivo; 0.1 nmol, uptake in Pancreas): 7 ± 1.4 %ID/g
- tissue uptake at 1 h (in vivo; 0.1 nmol, uptake in Pancreas): 4.7 ± 0.5 %ID/g
- tissue uptake at 0.05 h (in vivo; 0.1 nmol, uptake in Pituitary): 0.3 ± 0.2 %ID/g
- tissue uptake at 10 min (in vivo; 0.1 nmol, uptake in Pituitary): 0.2 ± 0.09 %ID/g
- tissue uptake at 0.5 h (in vivo; 0.1 nmol, uptake in Pituitary): 0.1 ± 0.2 %ID/g
- tissue uptake at 1 h (in vivo; 0.1 nmol, uptake in Pituitary): < 0.05 %ID/g
- tissue uptake at 0.05 h (in vivo; 0.1 nmol, uptake in Plasma): 13.2 ± 1.7 %ID/g
- tissue uptake at 10 min (in vivo; 0.1 nmol, uptake in Plasma): 8.6 ± 1.4 %ID/g
- tissue uptake at 0.5 h (in vivo; 0.1 nmol, uptake in Plasma): 3.4 ± 1.7 %ID/g
- tissue uptake at 1 h (in vivo; 0.1 nmol, uptake in Plasma): 1 ± 0.6 %ID/g
- tissue uptake at 0.05 h (in vivo; [2]): 5.2 ± 0.7 %ID/g
- tissue uptake at 0.5 h (in vivo; [2]): 0.8 ± 0.4 %ID/g
- tissue uptake at 1 h (in vivo; [2]): 0.2 ± 0.1 %ID/g
- tissue uptake at 0.05 h (in vivo; 0.1 nmol, uptake in Stomach): 4.4 ± 1.1 %ID/g
- tissue uptake at 10 min (in vivo; 0.1 nmol, uptake in Stomach): 5.2 ± 1.1 %ID/g
- tissue uptake at 0.5 h (in vivo; 0.1 nmol, uptake in Stomach): 6.3 ± 2 %ID/g
- tissue uptake at 1 h (in vivo; 0.1 nmol, uptake in Stomach): 6 ± 1.8 %ID/g
- tissue uptake at 10 min (in vivo; 0.1 nmol, uptake in Tumor): 11.8 ± 3.6 %ID/g
- tissue uptake at 1 h (in vivo; 0.1 nmol, uptake in Tumor): 9.9 ± 2.6 %ID/g
- tissue uptake at 0.05 h (in vivo; 0.3 nmol, uptake in Adrenals): 2.3 ± 0.6 %ID/g
- tissue uptake at 10 min (in vivo; 0.3 nmol, uptake in Adrenals): 1.2 ± 0.4 %ID/g
- tissue uptake at 0.5 h (in vivo; 0.3 nmol, uptake in Adrenals): 1 ± 0.1 %ID/g
- tissue uptake at 1 h (in vivo; 0.3 nmol, uptake in Adrenals): 0.8 ± 0.3 %ID/g
- tissue uptake at 0.05 h (in vivo; 0.3 nmol, uptake in Kidney): 17.2 ± 5.4 %ID/g
- tissue uptake at 10 min (in vivo; 0.3 nmol, uptake in Kidney): 12.8 ± 2.2 %ID/g
- tissue uptake at 0.5 h (in vivo; 0.3 nmol, uptake in Kidney): 16.9 ± 6.3 %ID/g
- tissue uptake at 1 h (in vivo; 0.3 nmol, uptake in Kidney): 13.4 ± 2.8 %ID/g
- tissue uptake at 0.05 h (in vivo; 0.3 nmol, uptake in Muscles): 1.1 ± 0.1 %ID/g
- tissue uptake at 10 min (in vivo; 0.3 nmol, uptake in Muscles): 0.5 ± 0.1 %ID/g
- tissue uptake at 0.5 h (in vivo; 0.3 nmol, uptake in Muscles): 0.3 ± 0.1 %ID/g
- tissue uptake at 1 h (in vivo; 0.3 nmol, uptake in Muscles): < 0.05 %ID/g
- tissue uptake at 10 min (in vivo; 0.3 nmol, uptake in Pancreas): 3.5 ± 0.3 %ID/g

From article PMC5118228 (EJNMMI Research, 2016)
